Experimental data published in article PMC7533053, “Improving transgene expression and CRISPR‐Cas9 efficiency with molecular engineering‐based molecules”.

How the values were obtained:
β-catenin [1] = target: T1, β-catenin (UniProt P35222 1-781); test: SPR; KD shown only in figure; SPR Biacore X100, CM5 chip, protein immobilized by amine coupling; RNA injected 1.5 min at 5 μL/min, six concentrations 4.1 nM-1 μM; running buffer, pH and temperature not stated
β-catenin [2] = target: T1, β-catenin; test: SPR; stronger than ANAM-β; KD shown only in figure; SPR Biacore X100, CM5 chip, protein immobilized by amine coupling; RNA injected 1.5 min at 5 μL/min, six concentrations 4.1 nM-1 μM; running buffer, pH and temperature not stated

T1 sequence (P35222 whole entry): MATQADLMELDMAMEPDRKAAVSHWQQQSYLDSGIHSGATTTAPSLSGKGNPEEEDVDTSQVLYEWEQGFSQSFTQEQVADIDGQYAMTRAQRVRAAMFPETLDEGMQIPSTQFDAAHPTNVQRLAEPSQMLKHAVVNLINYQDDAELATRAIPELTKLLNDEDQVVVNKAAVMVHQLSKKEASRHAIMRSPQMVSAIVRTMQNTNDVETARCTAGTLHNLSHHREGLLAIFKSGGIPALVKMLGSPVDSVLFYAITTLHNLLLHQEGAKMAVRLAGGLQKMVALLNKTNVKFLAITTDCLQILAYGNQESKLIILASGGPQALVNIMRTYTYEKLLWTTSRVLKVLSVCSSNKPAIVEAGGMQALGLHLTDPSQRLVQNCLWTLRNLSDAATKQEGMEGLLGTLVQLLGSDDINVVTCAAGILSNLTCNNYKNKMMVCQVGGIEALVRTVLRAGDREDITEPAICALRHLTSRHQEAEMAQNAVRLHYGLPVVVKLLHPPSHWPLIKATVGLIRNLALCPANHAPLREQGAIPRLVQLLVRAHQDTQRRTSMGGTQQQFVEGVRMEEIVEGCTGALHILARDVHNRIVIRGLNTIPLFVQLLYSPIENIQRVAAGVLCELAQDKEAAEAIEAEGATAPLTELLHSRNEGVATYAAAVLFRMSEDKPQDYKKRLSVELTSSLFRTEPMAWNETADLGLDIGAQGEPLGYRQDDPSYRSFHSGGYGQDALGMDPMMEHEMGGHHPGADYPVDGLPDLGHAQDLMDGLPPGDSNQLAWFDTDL

AGGCCGAUCUAUGGACGCUAUAGGCACACCGGAUACUUUAACGAUUGGCU (structured_RNA) [ANAM-β]
binding result (β-catenin [1]): binds

B1: ANAM-2Sβ (structured_RNA)
RNA: GGGAGCGGCCGAUCUAUGGACGCUAUAGGCACACCGGAUACUUUAACGAUUGGCCGCCUGCUGCGGGCCGAUCUAUGGACGCUAUAGGCACACCGGAUACUUUAACGAUUGGCCCGCAGCAGUUCCC
binding result (β-catenin [2]): binds
